Results taken from PMC4001774.

Biological target: CaM-GST on Sepharose beads (UniProt P0DP23)
Test: pull-down

Chain of CaMKIIα-Venus (P11275 whole entry): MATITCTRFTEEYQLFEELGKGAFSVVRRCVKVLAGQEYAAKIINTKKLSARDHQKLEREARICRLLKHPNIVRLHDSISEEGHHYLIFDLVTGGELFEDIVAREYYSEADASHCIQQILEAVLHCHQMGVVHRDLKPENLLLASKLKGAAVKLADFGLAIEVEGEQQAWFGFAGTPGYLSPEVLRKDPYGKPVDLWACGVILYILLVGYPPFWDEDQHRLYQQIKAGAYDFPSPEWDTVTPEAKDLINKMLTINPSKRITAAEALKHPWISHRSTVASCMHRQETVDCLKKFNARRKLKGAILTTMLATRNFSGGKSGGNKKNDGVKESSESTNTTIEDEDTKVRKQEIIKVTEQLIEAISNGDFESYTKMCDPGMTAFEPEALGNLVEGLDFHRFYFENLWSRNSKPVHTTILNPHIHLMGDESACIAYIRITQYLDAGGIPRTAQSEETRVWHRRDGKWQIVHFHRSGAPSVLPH
Chain of human Ano1(ac) (natural protein) (Q5XXA6 whole entry): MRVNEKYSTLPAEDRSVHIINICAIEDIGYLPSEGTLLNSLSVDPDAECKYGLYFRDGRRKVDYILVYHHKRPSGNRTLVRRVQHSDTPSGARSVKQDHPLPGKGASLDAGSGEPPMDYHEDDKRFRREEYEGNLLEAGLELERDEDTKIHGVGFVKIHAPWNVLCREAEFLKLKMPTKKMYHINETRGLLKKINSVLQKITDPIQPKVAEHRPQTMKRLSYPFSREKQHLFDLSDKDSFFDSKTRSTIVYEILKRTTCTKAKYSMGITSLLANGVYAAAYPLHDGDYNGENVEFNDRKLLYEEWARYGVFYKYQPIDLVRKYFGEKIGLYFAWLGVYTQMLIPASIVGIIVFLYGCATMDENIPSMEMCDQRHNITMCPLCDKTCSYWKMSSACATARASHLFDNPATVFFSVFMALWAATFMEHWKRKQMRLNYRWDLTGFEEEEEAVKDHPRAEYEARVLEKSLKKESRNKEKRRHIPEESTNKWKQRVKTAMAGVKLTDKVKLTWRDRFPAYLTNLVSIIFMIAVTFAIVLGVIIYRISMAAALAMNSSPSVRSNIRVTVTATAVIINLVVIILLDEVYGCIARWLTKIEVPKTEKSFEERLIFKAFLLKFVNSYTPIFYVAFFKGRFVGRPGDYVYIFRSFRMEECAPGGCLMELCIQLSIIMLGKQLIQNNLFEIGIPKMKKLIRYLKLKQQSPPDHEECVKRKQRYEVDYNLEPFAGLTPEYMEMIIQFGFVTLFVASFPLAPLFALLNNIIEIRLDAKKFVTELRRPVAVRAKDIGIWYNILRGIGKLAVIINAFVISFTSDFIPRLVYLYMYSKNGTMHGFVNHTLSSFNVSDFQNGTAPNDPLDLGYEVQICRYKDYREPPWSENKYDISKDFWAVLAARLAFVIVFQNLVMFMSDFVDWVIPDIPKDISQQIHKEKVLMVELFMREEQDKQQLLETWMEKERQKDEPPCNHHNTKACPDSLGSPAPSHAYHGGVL
Chain of mAno1-FLAG(3X) (Q8BHY3 whole entry): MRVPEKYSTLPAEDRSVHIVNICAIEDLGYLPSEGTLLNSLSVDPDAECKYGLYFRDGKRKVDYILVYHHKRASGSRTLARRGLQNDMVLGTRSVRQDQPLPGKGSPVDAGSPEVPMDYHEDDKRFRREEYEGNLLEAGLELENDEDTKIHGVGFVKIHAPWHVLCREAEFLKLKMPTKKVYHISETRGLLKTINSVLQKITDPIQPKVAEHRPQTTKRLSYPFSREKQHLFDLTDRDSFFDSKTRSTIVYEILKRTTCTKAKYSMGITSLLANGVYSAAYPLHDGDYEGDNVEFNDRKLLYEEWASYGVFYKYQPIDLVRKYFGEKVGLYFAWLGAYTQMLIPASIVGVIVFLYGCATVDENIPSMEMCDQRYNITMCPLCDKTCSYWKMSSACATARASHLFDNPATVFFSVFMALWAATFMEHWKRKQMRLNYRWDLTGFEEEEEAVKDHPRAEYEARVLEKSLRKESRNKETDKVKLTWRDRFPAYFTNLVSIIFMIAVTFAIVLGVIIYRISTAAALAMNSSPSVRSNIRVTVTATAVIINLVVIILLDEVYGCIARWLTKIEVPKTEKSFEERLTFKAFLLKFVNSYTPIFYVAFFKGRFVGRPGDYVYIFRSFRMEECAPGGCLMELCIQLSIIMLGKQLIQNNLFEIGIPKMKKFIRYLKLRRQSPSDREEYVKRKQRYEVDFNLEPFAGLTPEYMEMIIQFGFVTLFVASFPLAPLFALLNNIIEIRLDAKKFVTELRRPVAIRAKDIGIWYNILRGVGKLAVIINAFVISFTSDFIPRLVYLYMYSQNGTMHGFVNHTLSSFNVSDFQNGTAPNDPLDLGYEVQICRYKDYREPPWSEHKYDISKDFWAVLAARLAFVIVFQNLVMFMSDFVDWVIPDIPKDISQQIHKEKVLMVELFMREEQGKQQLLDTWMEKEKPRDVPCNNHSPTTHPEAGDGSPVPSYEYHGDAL

fold bound with Ca2+ over without Ca2+ | percent of the protein in the lysate that bound | Substance
10 fold | 100% | CaMKIIα-Venus (from UniProt P11275 1-478) (enzyme)
2 fold | < 1% | human Ano1(ac) (natural protein)
– | < 1% | mAno1-FLAG(3X) (from UniProt Q8BHY3 1-960) (natural protein)
